In article PMC8565331, “The RNA chaperone StpA enables fast RNA refolding by destabilization of mutually exclusive base pairs within competing secondary structure elements” one finds Kd data, which are given here for five molecules.

The target in data set [1] is T1, StpA-CTD (Escherichia coli, UniProt P0ACG1 90-134).
T1 chain: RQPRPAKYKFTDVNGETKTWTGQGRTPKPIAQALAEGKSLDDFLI
The data set is described as follows: ITC; 25 C; n=1.93; 50 mM BisTris, 25 mM NaCl, pH 6.4; ITC at 5 and 25 C (40 uM RNA in cell, StpA-CTD 400/800/920 uM injected); NMR with 10% D2O, titration at 25 C. Particulars: protein: recombinant; tags: none (His6-SUMOstar removed by SUMO protease); chain copies: 2. For orientation: Isothermal titration calorimetry measures the heat released or taken up as one component is titrated into another.

Data set [2] has as its target T1, StpA-CTD. The data set is described as follows: ITC; 5 C; n=1.84; 50 mM BisTris, 25 mM NaCl, pH 6.4; ITC at 5 and 25 C (40 uM RNA in cell, StpA-CTD 400/800/920 uM injected); NMR with 10% D2O, titration at 25 C. Particulars: protein: recombinant; tags: none (His6-SUMOstar removed by SUMO protease); chain copies: 2.
Data set [3] addresses T1, StpA-CTD. The data set is described as follows: ITC; 25 C; n=2.33; 50 mM BisTris, 25 mM NaCl, pH 6.4; ITC at 5 and 25 C (40 uM RNA in cell, StpA-CTD 400/800/920 uM injected); NMR with 10% D2O, titration at 25 C. Conditions: protein: recombinant; tags: none (His6-SUMOstar removed by SUMO protease); chain copies: 2; hairpin, locked 3'-fold.
The target of data set [4] is T1, StpA-CTD. Put plainly: ITC; 5 C; n=2.21; 50 mM BisTris, 25 mM NaCl, pH 6.4; ITC at 5 and 25 C (40 uM RNA in cell, StpA-CTD 400/800/920 uM injected); NMR with 10% D2O, titration at 25 C. Particulars: protein: recombinant; tags: none (His6-SUMOstar removed by SUMO protease); chain copies: 2; hairpin, locked 3'-fold.
Data set [5] addresses T1, StpA-CTD. The data set is described as follows: ITC; 25 C; n=1.74; 50 mM BisTris, 25 mM NaCl, pH 6.4; ITC at 5 and 25 C (40 uM RNA in cell, StpA-CTD 400/800/920 uM injected); NMR with 10% D2O, titration at 25 C. Conditions: protein: recombinant; tags: none (His6-SUMOstar removed by SUMO protease); chain copies: 2; hairpin (3'-fold), 1 nt 5' overhang.
Data set [6] has as its target T1, StpA-CTD. Put plainly: ITC; 5 C; n=1.78; 50 mM BisTris, 25 mM NaCl, pH 6.4; ITC at 5 and 25 C (40 uM RNA in cell, StpA-CTD 400/800/920 uM injected); NMR with 10% D2O, titration at 25 C. Conditions: protein: recombinant; tags: none (His6-SUMOstar removed by SUMO protease); chain copies: 2; hairpin (3'-fold), 1 nt 5' overhang.
In data set [7] the target is T1, StpA-CTD. Put plainly: ITC; 5 C; n=1.93; 50 mM BisTris, 25 mM NaCl, pH 6.4; ITC at 5 and 25 C (40 uM RNA in cell, StpA-CTD 400/800/920 uM injected); NMR with 10% D2O, titration at 25 C. Conditions: protein: recombinant; tags: none (His6-SUMOstar removed by SUMO protease); chain copies: 2; hairpin, locked 5'-fold.
Data set [8] addresses T1, StpA-CTD. The data set is described as follows: ITC; 25 C; n=1.80; 50 mM BisTris, 25 mM NaCl, pH 6.4; ITC at 5 and 25 C (40 uM RNA in cell, StpA-CTD 400/800/920 uM injected); NMR with 10% D2O, titration at 25 C. Particulars: protein: recombinant; tags: none (His6-SUMOstar removed by SUMO protease); chain copies: 2; hairpin, locked 5'-fold.
The target in data set [9] is T1, StpA-CTD. Put plainly: ITC; 25 C; n=1.69; 50 mM BisTris, 25 mM NaCl, pH 6.4; ITC at 5 and 25 C (40 uM RNA in cell, StpA-CTD 400/800/920 uM injected); NMR with 10% D2O, titration at 25 C. Conditions: protein: recombinant; tags: none (His6-SUMOstar removed by SUMO protease); chain copies: 2; hairpin (5'-fold).
Data set [10] addresses T1, StpA-CTD. The data set is described as follows: ITC; 5 C; n=1.74; 50 mM BisTris, 25 mM NaCl, pH 6.4; ITC at 5 and 25 C (40 uM RNA in cell, StpA-CTD 400/800/920 uM injected); NMR with 10% D2O, titration at 25 C. Particulars: protein: recombinant; tags: none (His6-SUMOstar removed by SUMO protease); chain copies: 2; hairpin (5'-fold).

As usually defined, the Kd is the equilibrium constant for the complex coming apart. As for GACCGGAAGGUCCGCCUUCC (structured_RNA) [bistable 20mer RNA], the Kd with StpA-CTD [1] was 12.3 ± 1.7 µM; in the data set with StpA-CTD [2], 9.4 ± 1.3 µM.

Regarding GACCGGAAGGUCCGCCUUCC (structured_RNA, N6-dimethyladenosine at A2) [A2-DMA], the Kd in the data set with StpA-CTD [3] was 13.6 ± 1.6 µM; with StpA-CTD [4] it was 8.31 ± 0.8 µM.

Consider CGGAAGGUCCGCCUUCC (structured_RNA) [3'-HP], for which the Kd came to 16.1 ± 2.6 µM with StpA-CTD [5] and 11.3 ± 1.4 µM in the data set with StpA-CTD [6].

On to GACCGGAAGGUCCGCCUUCC (structured_RNA, N1-methylguanosine at G6) [G6-m1G], for which the Kd with StpA-CTD [7] was 16.3 ± 0.7 µM; with StpA-CTD [8], 17.5 ± 1.3 µM.

With GACCGGAAGGUCC (structured_RNA) [5'-HP], the Kd is 24.7 ± 0.6 µM in the data set with StpA-CTD [9] and 13.3 ± 3.7 µM with StpA-CTD [10].
